The nature of the data set: label from the status in PepcDB records.
In the case of “MDVGSFGFTIAGLVVGFIVGMTGVGGGSLMTPILLWFGIHPATAVGTDLLYAAITKASGVWVHARNKNIDWKITGLLSLGSVPAAALTLWFLSTLHTDTSALNAIIKQGLAVVLILTALAILFKSRLQAFASRHAGDHYHLSDRSLNILTVLTGVVLGIMVTLTSIGAGALGTVALFLLYPFLVTRRLVGTEIAHAVPLTLVAGLGHAGMGNMDWSLLGYLLLGSLPGIYLGSHLTGRISDRVLRPCLATMLLLIGYKLAF”, the protein production entry is “failed”.

Regarding “MAFTPFPPRQPTASARLPLTLMTLDDWALATITGADSEKYMQGQVTADVSQMAEDQHLLAAHCDAKGKMWSNLRLFRDGDGFAWIERRSVREPQLTELKKYAVFSKVTIAPDDERVLLGVAGFQARAALANLFSELPSKEKQVVKEGATTLLWFEHPAERFLIVTDEATANMLTDKLRGEAELNNSQQWLALNIEAGFPVIDAANSGQFIPQATNLQALGGISFKKGCYTGQEMVARAKFRGANKRALWLLAGSASRLPEAGEDLELKMGENWRRTGTVLAAVKLEDGQVVVQVVMNNDMEPDSIFRVRDDANTLHIEPLPYSLEE”, the protein production entry is listed as “not failed”.

For “SDRGQAEEAAGRQARAVSLAIADSPSVAEAIRTPDPTALLQPYAVRVMRDTDVDFVTIMNPEGIRWTHPEPTEIGHLFQGHIERAQRGQTFTETYTGTLGPSVRAVTPIVDDGRIVGLVSAGIKVEEIS”, the protein production result is reported as “failed”.

Consider “MFGEQLLKNPLIEFCDSVCRGCGQVMFQNNTVTGLLFFAGIFYNSTTLGVCAVLGTAASTLTAQLLGVDKPLVRAGLFGFNGTLAGIALPFFFNYEPAMLGYVALNGAFTTIIMASLLNFLGKWGVPALTAPFVLATWLLMFGVYKLSLFHPGALIAPALPSVAGLADMGTVTGRTFMEGLFKGVGEVMFQDNIVTGVIFVVAILVNSRISALFAVIGSLVGLCTALIMHSPETPVRLGLYGFNSVLCGIAMGGIFFYLNIRTFLYALGCMVLGAIATGAFSVLLSPIGMPALTWPFIVVTWLFLFAGSMFRNIAQVPTEKAGTPEDNLRSLAIGSR”, for which the protein production entry is reported as “not failed”.

As for “AAKPQIVEVTDDMPVEPIGVGIPEAGQTYPVIMGDYAAQQARWARIDVQPGTALSKPKPLIAKLDPELGETGPEWAPVNP”, the protein production entry is given as “failed”.

For the sequence “MEETRPIDGLTDEDIREILTRYKKIALVGASPKPERDANIVMKYLLEHGYDVYPVNPKYEEVLGRKCYPSVLDIPDKIEVVDLFVKPKLTMEYVEQAIKKGAKVVWFQYNTYNREASKKADEAGLIIVANRCMMREHERLLGEK”, the protein production result was “not failed”.

With “MKSITQASFMKGIMFTFTIAIISYILAKFPILHTIGALAIAIIFAMIYRQVIGYPEHIRPGITFASKRLLKFAIILYGLKLNMGDILGKGWKLLLIDIIVIIFSISLTLLLNQIIKGNKDISILLGIGTGVCGAAAIAATAPILKSKEKDIAISVGIIALVGTIFALIYTAIEAIFNIPTITYGAWTGISLHEIAQVVLAAGIGGSEAMTFALLGKLGRVFLLIPLSIVLILYMRYKSHSSQVQQKIDIPYFLIGFIIMACINTFVPIPSLLMNIINVITTLCMLMAMVALGLNIVLKEVISKALKPFIVICITSICLSGVTLLVTSIMFK”, the protein production entry was “failed”.

As for “MGHHHHHHSHMISWLTGEELHVEVLENVPLTTHNFVRKTFFTLAFCDFCRKLLFQGFRCQTCGYKFHQRCSTEVPLMCVNYDQLDLLFVSKFFEHHPIPQEEASLAETA”, the protein production entry is recorded as “not failed”.

Take “MIYRFTIISDEVDDFVREIQIDPEATFFDLHEAILKAANYTNDQMTSFFICDDDWEKEKEITLEEMDNNPEMDSWIMKETRLNELIEDEKQKLLYVFDYMTERCFFIELSEIITGKEIKGAKCTKKSGEAPKQTVDFEEMAAGGGSLDLDENFYGDQDFDMEDFDAEGFDVNDGAAGGGSSYDEDKFLEHHHHHH”: the protein production entry was “not failed”.

As to “MGRAHVSTHELVAGRYRLFEVVQRETNRVCWSGEDATTGRPCLVTRIELPEGRAGEAARRAPGRVIRTGETMASLCPGRIAPVLDAVVADGMLWTVTEWVAGVPLGDLLDRRGAFGCARAARVGLELLAVLEAAHTHGVTHGELSPGQVFVREEGSVLVTGFGLAGATLAPRLTAPAYASPEQARDERIGPAADLWTLGAILYTMVEGRPPFRDRGRPEATLKGVDRLPLRTPVRAGPLAQAVTGLLRKNSRERPTRPVVRAALARALAEDPGTAVTEVTTGPGVRGGYAAARTAGRDRSRRTVAAGTALAVVTVAVAVLADLAVTDGLPGRGDGAAAGARQRPSASAAPPTGSAPAAASPGSPSSPAGRPSASASPSKPGVPAPAGFRRYDAPEGFSVALPEGWRRLDTASAPGGAYRVVFGASGDPRTLAVTYSRRAGADPVVVWRDDVEPGLARSDGYRRIGEIRSTTYRGRAAADMEWLVRDDGTRLRTFGRGFLLGGGRSFSLRWTTPAGDWDDSANERALAAFLGTFRDGAA”, the protein production entry is given as “failed”.

For “PDTIIAVDRDHRIIYVNRAMPGHKKTLAVGDHLCDHIMQPYHDRYHHTIERVIVTGKTAVLECELVVSPEETIELESRFAPCFLNGEVTSVVMLSVDITERKGMELELKKTLIDLERFNRVMVGRELRNIELKKRIASLQNDLVLSSGNAQASDDSRQDFATEDEDCAGIHHGDGFEEACDEVQYRKQQRMALLNLIEDANLARNELLETNRKLEESVIRTQEMARAASKANEAKSQFLANMSHEVRTPMNGVIGMSDLLLDTS”, the protein production result was “failed”.

As to “MKVLFIHPFGSNWLGTGTDITTIFNLMPPLGLLSIAAFLEARGIGTEVIDCYATPMPAETLVAEVIRRRPDVVGFSCTTSSFLEGYSIAERIKEKAPGITTVFGGAHACSVGVGLLDTFPAIDYLVIGEGEQTFFELVTNLDHGGSGIPGVGYRENGKGVISALREHIANLDDLPFPAYHRLPQFPKRYILPLFSYPKAPNTSIISSRGCPYQCSYCDRSVFSRGFRFNSPEYIVEHLKMLNRDYGIRHVFFYDDLFTTDRARVARFCELKERERLPVTYNCIARLEHVDAELLRLLKRSGCWQVNFGIESGDPEVIKKHRKFYGLDEVQRKLQLVRDTGMRVKGLFMVGLPGETEESIRRTIDYALALPLDEINVTKFTPFPGAPLYATIREQGEFDENWPLMNCLNFVFVPHGMTREQLEGLYNEFISRFYRRSRIHWGYTKMLWKSPHSVATFLRHLPEILAFELKQKW”, the protein production result is given as “failed”.

On to “MKTINVITLVLLIVGGLNWGLVGLFQFDLVAALFGGQDALLSRVVYTLVGISALRQLVPLFRNNHDTAEHHTSPHVRNNP”, for which the protein production entry was “failed”.

Consider “MSLKIKVYLYTRVSTSIQIEGYSLEAQKSRMKAFAIYNDYEIVGEYEDAGKSGKSIEGRIQFNRMMEDIKSGKDGVSFVLVFKLSRFARNAADVLSTLQIMQDYGVNLICVEDGIDSSKDAGKLMISVLSAVAEIERENIRIQTMEGCIQKAREGKWNGEGHHHHHH”, for which the protein production entry is given as “not failed”.

Turning to “MIVTLLGTGDSPGTPILNCHCRTCEDARRKGWERKRFSVMVQNNGKTVLIDTSPDLRRQLLDCGVEKVDAVIWTHCHFDHFGGFGEFYRVQNNVKVYSTPQIHEDIGHFMKFMSYKPVEVEAFENFTIAGMDFTLLPVNHPPVSAVGVKVEWKGYKVVVSGDTNVRIPEATLREMQNPDLLIVEALAPTGRFRKHMNAKEALELAKRLNAGKVVLTHLGHFFPPHHLAIKSYPVGEDYQSFSFGEGRLDEFFGDLEHHHHHH”, the protein production entry was “failed”.

In the case of “MKDLTQGSIPKHLISMALPMMIGMLIQTLYFIVDLYFVGKLGSAALAGLSLAGNAMFLIFALTQILNVSTAALISHAVGAKDQQDANLTFNQSMMLSTVVGIIVCIIGYFGAQDYLNLISQDSETVMMGLTYLHWFIPCMALQFIMVSISSALRGTGIVKPTMVIQTLSILLNIILSPILITGWGSGYAMGIAGAGFASSLSVIFAVVLLCYYFITTDKYVSVDFSLWHINVPRIKKLLAIGLPAGGEFFLMFVYMGAIYWLIKPFGAEAQAAFGLGSRVMQALFLPAMAIAFAAPAIAGQNFGAQNYQRVRDTFRWTAIMTCSLMAIILLICLSQAEWMLTHFSDDREVILISVAFLQMICWNFVPAGLVFTCSGMFQALGNTMPALLSTATRLITFILPALWLSKQSDFQIEQLWYVSVATVCLQSSVSFYFLKREFKKRLPNDNLSNECSDELNKNKLIT”, the protein production entry is recorded as “failed”.

Regarding “MSTTGKNTTAAATDTVTERPPVFSVDGLWKVFGPKAARVPADPDLTALSPAELRSRTGCTAAVADVSFDVRKGEVFVVMGLSGSGKSTLVRCLTRLIEPTAGSIVIDGEDVRAMDRSRLRELRRHRAAMVFQHFGLLPHRTVLDNVAYGLEVQGMGRAERRERAAAIVAKVGLEGLEQRRPGQLSGGQRQRVGLARALAVDPEVLLFDEPFSALDPLIRRDMQEEVVRLHREEGRTMVFITHDLQEALKLGDRIALMRDGRVVQLGTPEEIVGSPADDYVREFVRDVPREQVLTVRTAMRPAANADEAGTGPAIRPEATVSEAIEAVARAGSAARVMSDGRCLGVVDAADLLSVVAGTAAAGSRAAGAARVGAAATGERREPTDPRPATTEEPV”, the protein production entry is reported as “failed”.

Consider “LKLEVVEDKQYGRLANRIENVVSQERTRKKFESLVSDSPDGIVHLTTNGTILSVNPSMAGRLGADPDTLVGQQLSAVMDSEAANQRLEAGKSAVENGTATRSEDAVGGRHYHNQYIPVDSHR”, for which the protein production result is on record as “failed”.

For “MQGVLLALVPMFAWGSIGFVANKFGGDAKQQTLGMTLGAFVFALIVFLFRMPTLTWQIFLIGFIGGLLWAIGQFGQFNSMKYMGVSVASPLSSGSQLVIGGLIGVFAFHEWTKQIQFILGFIAMAVLVVGFYFSAKRDPENAVVEEGRNYTKGLTALTYSTLGYVIYVILFNNLAVLWFNVHFDTLTIILPMSVGMIFGALVMGRFKIKMEKYVYQNMIVGAMWGVGNIFMLMAASAAGNAIAFSFSQLGVIVSTIGGILFLGEKKTKKELVYVGIGIVLFVTGAILLAIVKSKG”, the protein production result was “failed”.

With “MEQHIGELIAHYGYFGIVIALAGGIVGLPIPDEFLLTFVGYNVSKGVMSGTAAFLSGLAGAMLGITLSYILGLKLGLPVLKKYGPKIRIKEHHIEKTHILFEKYGPFLLMIGYFIPGVRHLTAYFAGVSNLTLWRFCLYAYGGALIWISVFIGLGWKLGEKWRFVEYSLHHYGIWILLISAVVTCFVWLYIKKKKNR”, the protein production entry was “failed”.

Consider “MILEFKSEKKMINFSKSFFYPLPIGKIFVLSGDMGSGKTSFLKGLALNLGISYFTSPTYNIVNVYDFINFKFYHIDLYRVSSLEEFELVGGLEILMDLDSIIAIEWPQIALSIVPKDRLFSLTFKIVGSGRVVELNGLEHHHHHH”, for which the protein production result is listed as “not failed”.

Regarding “MNTMEKKTNIHAEDGKQDLLISREFDLPVELLFKAYTEPEFVEQWMGTTVLKLENKKHGSYQFETTDPKGNKHGFNGTIHEFVPDKKITRTFEMDNTPFPIQLEFLVFEKTTETTSKLNMHVIYKSVTDRDNILKLPFAQGINMAHNRIQELPTKLK”, the protein production entry is listed as “failed”.

Regarding “ESLQQVVMAYFGVQFKSEQKAIALKAMQHIVQSFSLDNGPQNHDITHHTDNQGYENYIVVGYWRDPGAYCRWFRSTEVSHWWDSDERLNDGIGYFREIVIPRADQFETLYAFKEDLPGVGAVMDDISDDIQEHGYWGSARERF”, the protein production result was “not failed”.

In the case of “MREHFVNEFMAVLSNKLTEDALSIVYQSLTLFVSNYEISERNTEVVPYTGYLPECYETYFVTRKIEGMSMKSLELYNLVLKDFFFKLNKEICKISTNDIRVYLYKNQQERNLSNSTLDTKRTIIHAFFEWAANEGYIGSNPCRNIKPIKYERPKRKPLTGIELEKVRNACDNLKDKALLELFYSTGCRVTEMERLDISDIDFQTKEVLLFGKGDKHRISYLNAKAEIAIRNYLDSRNDNEEALFVSDRKPYGRLKKPAIEKRIRVLGEKSGIGRRLYPHLIRHTTATDGLDRGMPVEEVQQILGHVNIATTMIYAEVSRANVKNNHRKCIV”, the protein production entry is given as “failed”.

Values taken from a protein production outcome set (Wang et al. 2014).
